Consider six substances from paper PMC11620640.

Test [1] addresses raccoon dog ACE2 (rdACE2), peptidase domain (PD), wild type (raccoon dog) (UniProt B4XEP4). Kind of test: SPR. A general note: SPR reads the build-up and loss of mass on a sensor chip optically.
Test [2] shares this target. As to the kind of experiment: SPR; BIAcore […], 25°C, PBST (0.005% Tween-20 in PBS); […], single-cycle; 1:1 Langmuir model; […].
Test [3] deals with SARS-CoV-2 Alpha variant spike RBD (UniProt P0DTC2). Kind of test: SPR.

Substance “SARS-CoV-2 Omicron BA.2 spike RBD (from UniProt P0DTC2 319-541) (domain or fragment)” displayed a fold decrease of affinity against PT RBD in test [1] of more than 10 fold.
“SARS-CoV-2 Omicron XBB spike RBD (from UniProt P0DTC2 319-541) (domain or fragment)” gave a fold decrease of affinity against PT RBD in test [2] of 10 fold.
Substance “SARS-CoV-2 PT RBD K417N variant (from UniProt P0DTC2 319-541) (domain or fragment)” registered a fold decrease of affinity against PT RBD in test [1] of more than 6 fold.
Usually Kd stands for the free concentration of one partner at which half of the binding sites on the other are occupied at equilibrium, for simple one-to-one binding. “raccoon dog ACE2 (rdACE2), peptidase domain (PD), wild type (from UniProt B4XEP4) E38D” had a Kd in test [3] of 12.4 nM.
The same measure, in the same setting: with “raccoon dog ACE2 (rdACE2), peptidase domain (PD), wild type (from UniProt B4XEP4) L24Q” the figure was 42.9 nM; with “raccoon dog ACE2 (rdACE2), peptidase domain (PD), wild type (from UniProt B4XEP4) R353K”, 59.4 nM.
